Laboratory results taken from the supplement of paper PMC12636428.

Test system: Saccharomyces cerevisiae
Test: transcriptional activation domain activity (GFP:mCherry ratio, weighted mean of sorted bins, harmonized to initial dataset scale) (arbitrary fluorescence ratio units); higher = stronger transcriptional activation
Conditions: beta-estradiol 1 µM; induction time 4 h
In short: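 Barcoded tiles were sequenced after cells were sorted into 8 bins by GFP:mCherry ratio. Before sorting, cultures had been diluted 1:5 into SC with 1 uM beta-estradiol and held for 4 hours at 30 °C. The tiles were fused to an estradiol-inducible synthetic transcription factor and integrated at URA3 in yeast diploids carrying a GFP reporter. Activation activity is the read-weighted mean of bin median fluorescence, averaged over barcodes and linearly mapped onto the initial dataset scale, and tiles under 50 reads were left out.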

| Sequence | transcriptional activation domain activity |
| --- | --- |
| HFSLLWPPHCSLWCTLFFLLIGHFVFILCLCYSVFFSFPSFLLIVSCFLLCFP | 37800 |
| MSTPKVVASATRQINAVVVSAGLMQKTVKARVGVQKWNRHIKKHFNRSTNVLV | 53100 |
| LWQYMEFRIMIYLFLALCFIPISIFVIFCSCLSSILFMISAGIWIFFGTIAFL | 51200 |
| RRDCATSSDARTPARLCCSHGVGTKLDKAETSREVSAEEARALADAHGARFCE | 24300 |
| MNILNLEMWYYLLECLNLRFVLVFFLLSLFFSSRFTGGLVGVECFSFFVWITM | 86000 |
| SNYCWQMSVLPRARISIFRAEVKERCVVTVALLFSVYDPIAIVDLVKKLETDF | 27500 |
| VVCHFVIMMASMSYKIVICVIIGVHADLMVMDARWRSLGSWLYLLCGVIVAPA | 67300 |
| RSRSPEPARKKVDVKQEEPLASSKWAKDDDETLRKRESELKEGLLRKKVTASL | 34800 |
| MGSTIVFSVVFIWFFLVSFQQLLPFPKGTFFLLFLFPFSLSLPESSCIIFLAF | 51800 |
| ADSDRHKKHKSSSSSSKSRHHDRDDDRDDNDKHSRRSHHKSSSSRHDRDRERG | 46300 |
| MDLFFLLHFFIFIFLWHWLGSCLVWLFLVWLWGVFSFFFYYIFSCVSFFGSAI | 61300 |
| GSHQGKEAKKEEGKKEEGKDKKEEEEGKKGGKKGGKKGGKGGKGKKTGETEAS | 38000 |
| SSSNQQTRTRDGPKKKKANRACLHCQKAHLTCDDSRPCQRCVRRGMANSCTEG | 29900 |
| GFSVDPIVSLLYRAFTMMDVTFLRTVCFDIFSRYSTAELALVNQAFTAKHKKK | 40700 |
| GSSGSGAGSKGGPAPRGSSAKRSSGSGSGGGGRKGGGSAGKGSGGGGGRGRSG | 28600 |
| MDNTTDLYNYLVDMGLKFLLFWNMVNCKFCHLCLLMPFDITYIIFIFILLLEF | 70300 |
| MNPPDNIIILPFHPLPFFWLLIFIPFSLSLPSSFFFNSNLSFLFFFFVFCFMI | 68600 |
| MGPMMQQIQQPCGDCRGEGEIINAKDKCKACNARKVTQTRKVLEVHIDRGMKD | 45700 |
| KKKKRKKKTPSKGESEEKGDDEDDEDEKKQTPKANTGAKKTKATGKTDREKKE | 51500 |
| MLFPFRVSAISPDVICFIPLCFSFCYHFAIRVRGILPSRVRALMMYVWFVWYF | 51900 |
| MADEHAAHRRKRARLACLACNARRVKCNVAECRPCHNCAAANVPCETRESRRG | 38300 |
| GAEEGAKEKAGEVAKKRKREVAAAVEDEEGGQPKAEKVRTKKGGGKSKEKKDS | 27400 |
| KQYCVRPNSGRIEPGSDVEVQILLQAMKEDPPLEAKCRDKFLVQSVAVSADKE | 45400 |
| MDRVSIRFTLAISLADLGQAVLHMIGSKFSWLSCGLLLGISRFLCLFYIFLSV | 57100 |
| GASGGTKLAKKAPAAAAPKKVAAPKKEAAPKKEIKEKKPAAAPKKAAVPKKEA | 38800 |

| Sequence | transcriptional activation domain activity |
| --- | --- |
| HLNGESSPQLVPHSHHQPHSDTDEEDWESIGAASLRNNSLAPNIDSVASSTNG | 45100 |
| IQNEDKFAESKNLSLDEFLKIFNGIYYERLRYDFNVVVIILLLTLFNHCKDFY | 52700 |
| FGHVINEFVLSTFLTDQCHKIPQDTVNAYFEDCSTISTSQILMLLYILTFNDY | 60700 |
| MAPWDDAPAPFAADGDADDVTGSELAERFNKESGKVNAQLSAFPSALLCGRDK | 61900 |
| ARWSVAKVFYILGRYYGLFYMIVQLYISLTLDLALNVQRLLLVLDLVWRCCLY | 54000 |
| MFMGTLLLVFMDYGWAFFLDCYLWFFVTSLCFWYVKFCLLVGCCILVLCNVAW | 31700 |
| CPYYPMICPSFLPLLLVLLFSLYLFLSSPLDFFLPLDFLIHTHNCTFLRTKGQ | 40000 |
| KGDLESFRRITDLNLTHEHARWFCRYHMFYQLGNYCEIYLWRSIFRKVFLLTG | 54700 |
| KTRGFQEGVSLTVYDELARWEKYAYGCNELIFHPMRYWPTRGPFTKLFIRFIF | 41600 |
| MLNNSSSFFVVVPIIYTLIHYLSMLFLFGCLIHLFPYIPTCILQLLLFLLYLY | 44500 |
| SLTQLIWYLLRRRPFTVLQLNHLFGLPDPLRILHLASSRRLWNAIPVITIATL | 54600 |
| HMESDEEKERKPKKARKQKAEGSGDEAEPKKKRRGKLKRGGGDHEEAAVAAGE | 39200 |
| MKGVCLKVGTTKPKKPNSGERKIARVRLSSGKVITAYIQGEGHNVQQHSVVLV | 51000 |
| MQSGHLFRLFGIAKTVLFFFSSVSCSLLHFLFSSFPFPIFPFVLSICYVFHFF | 46600 |
| ILVHCIRLWTGFLVACFACLILLICLGACNLEMGIVVWSFCLISAGLHSVAVG | 16500 |
| HSITNFELVEDAPHQVGFSTPQMTAKQLMESVSELDLPPLTLDEPPQAIKFNL | 75900 |
| AGAPVFGLPPFRWWRFNVFWMFWCFFWNLQGVINLVTLDINGYLSIFIPFITI | 58700 |
| MWWRADGHYLNPLSQIFFSCEFWFFLLLFQMGDGFAFFFFLSIGLVTSFFFFF | 35400 |
| MGLWARFFCFVIVCFQITFLYCLLSFSPSFLDLQKIQPLFFTFFFFLLLSLFP | 43200 |
| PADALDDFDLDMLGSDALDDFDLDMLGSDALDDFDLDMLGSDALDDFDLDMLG | 152000 |
| FAELRRARAGCFFFFFFLFFPFFSFFYFFLLFLFLFLPPFPFLSFPFFSLCVL | 56100 |
| MPLMIIFRFTIFYFYFVSIFFFLFLLLVGEFFFLLSFFFFLSFVFFLFTISYF | 37100 |
| MGNVQRWAVAIKNVIAVLVVCLRFITDTFIIATSEYPRGGFLVLLHIRMLFML | 81400 |
| MRLLAYGLMSSGVLLAHVVHIWRQRGFFFATCIGLTNHNFGLLVIMNFCLFCS | 56000 |
| SLHLCFSMCLTMIGYIILIKIDTLEHKAVAYFACFLLTSGAFAPSCLFHSWHN | 33300 |

| Sequence | transcriptional activation domain activity |
| --- | --- |
| RCSIIYAGCHCPMWMVLFVPGCLFGLSVALGTLWLVQASDMLFPHTNYILIYI | 46700 |
| SHALQNRRASHASSAGSGSRRGSREETGEHHHKKHHHHKKHHHRRHSHGGGGG | 54500 |
| AEEPAPEAPAPEEPAVEEAVPAEEAAPEAPAPVEEATPEKPVAAEEAAPEAPA | 32600 |
| MLPSPGETKNHAKSQSEIIQMLTDEFWANYNSGWEELINQSEFSTLFDDYKDN | 116000 |
| MSRPSGCRSATSTGRATCSGCRRSSSPARPPCASRRARCSCGCVCASPTSTRR | 12100 |
| GRMIRMWKRWSVMAHGMNRLKHYANYLPRLIVLLNKTLPQDVADIIKFNMLVC | 39100 |
| FGVKKVHHEIRSHVRLYYQSIGTSLLKGYERMDMVDIFKALRQCFLAIVLLFR | 53600 |
| EDGRGSRRRKSRSRGREEEDSSSRRRKDRSRSRSVDKERKKRKRDKSEDRKAR | 31800 |
| MVVSLLIIRCHSTASSNRWLLLGYGLHFLIRFFYLITMLLITRLNFVLSFFAA | 81000 |
| VSSSSSSSSRTRKGGGDDEEVEGKERSATENKKKKLGKKGRIAARTKEKAAAA | 6920 |
| FITSLMLFQAVPCFLVHVIMLFPFFRNFPHQFRYRDPFTMVLLSFSFIFLFTF | 62700 |
| YSYVDSNMDSISSVVSEDLLDERGHEKIEDEDEDNDLDEDDIYDISLLKNRRK | 26500 |
| SERLKNTGASGERAREGISINAGLASLGKVISQLSSRQPGAHVSYRDSKLTRL | 48800 |
| WYAPDAGGSVYDYITLTAGLDALNCAQKVRISPLLIVLLRNFAVRCLLSKGSL | 52300 |
| LLPKSFPYSFFILFFFFLNFLLSSCFFLLFFPSPIRLSPSFTLVVIFHYFLRF | 51500 |
| MLDLLVVHFPISNGLIEDNDLKVLVKAAVGVVLRKDMSLNRRLYAWLLGAQEG | 44600 |
| MILRIWGFHYLYMLVPGWYLCFRFSFFLFYFLFLFLLQFLHITLPFSCLVSFW | 46200 |
| TDILKFWHLVVHNGMLERAKGLVSITLTSDTRFVFKAISWRLVMLPRLKYLAL | 76100 |
| WSVFFFFFFFFCLNLSVLWLWFFRLFFFFFFLCAFDVLCLPLSCPPLFRPKAT | 48200 |
| FATFYVARDVFHVTPNELHSIMYLHISSAPHFVIFSTRVPGFWWENMPHWLFF | 51500 |
| IFGSSFFLLCLFNLFFFLFFLSFLSLLFSFFLFFLFFFLFDVFTTVILSSTYG | 51800 |
| RGGRRGRGERKREKEEKKRRKRKGKEKRATTEEGGRARRKEKKAVCGRRWSGG | 46100 |
| GSRGGRGGRGGSGGRGGRGGSSGGGGRESSGGRSERGGRRGGSGASGTKRLGK | 15100 |
| VSRLHAKIEYEEEEERFVLVVIGRNGAWVDGVWSGASSRVPLGERSQIQIASR | 65500 |
